B1: CYP51 dsRNA-1: long dsRNA targeting G. orontii MGH1 CYP51 (target SEQ ID NO:85); link to SEQ ID NO:212 likely (nucleic acid)
chain: TACGTGAAGAAGTGTCCCAGCTTCAAAGGACAAAAAGGCACCGTTAATATAACTGAAGTTATGGCTGAAATCACTATCTACACTGCTTCGCATACTCTACAAGGAAAACAGGTTCGTGACAGGTTTGATTCCTCTTTTGCCGCTCTCTATCATGACCTCGATATGGGGTTCACCCCAATTAATTTTGTGCTGCATTGGG
modifications: misc_feature 1..199: note = Inhibitory double stranded RNA; listed as RNA
B2: BCDO dsRNA: long dsRNA targeting G. orontii MGH1 BCDO (target SEQ ID NO:145) (nucleic acid)
chain: ACTGCTCATAGTAATCCTATCCTATTTGCCCGGCTCGACTCAGGTGATCAAAAGGATTAGTGTAGCTAACACCAATATCTTATACCATGATGGACGGGCTTTGGCGACCTGCGAAAGTGGCCCACCAATGAGAGTTGTTCTCCCTCATCTGGATACAGTCGGTTGGTTCGATGGGCTGAAGGTAGGGGGAGAAAAGGCTACCGATGAATCGGACGGTCAATCCTTTGCGAAAGAAGGAACCTTTAATGTATTGGATGGACGGACAAC
modifications: misc_feature 1..267: note = Inhibitory double stranded RNA; listed as RNA
B3: LIP1 dsRNA: long dsRNA against G. orontii TAG lipase 1 (target SEQ ID NO:1) (nucleic acid)
chain: ACCTCTGCTGGTTCTATCTCTGCTTTTAACTTATTAGTCGCCAAAGATGGTGCTTTATCTTATAATGGCAAACCGCTATTCCGTGCTGCTATTATGGACAGTGGTAGCATCGTGCCTACTGATGCGGTGAACTCCCCGAAGCCACAAAATGTTTTCGATCAAGTCGTGAGTGCTGGAGGCTGTAGTGAAGCATATGACAAAATTAGCTGTCTACGGAATCTCGACTACACCGAGTTTTTGTTCGCAAGTACATCAGTTCCTGGTCTATTTGACTACCAATCAGTAGCACTTTCATACATCCCGCGACCTGACGGTGATCTTTTGACCGCATCTATGGATGAATT
modifications: misc_feature 1..344: note = Inhibitory double stranded RNA; listed as RNA
B4: LIPA dsRNA: long dsRNA against G. orontii TAG lipase A (target SEQ ID NO:2) (nucleic acid)
chain: CTCTTACGCTCATTCTCACGTATATTTCATCGTCGAAAAGGAAGTAGGCCAGAAAGACATATGCACTCTAACATTGAATGTACGAACTGCACTGTTCATATGGGATTTTGGACAAGCTACCAACAAATACGTCCTCATTTATTCTCCAAGATTAGTAGCCTTCGAAAAAAATTCCCTAACTATCGATTGGATTTAGTCGGACACTCACTAGGTGGCGCTGTTGCTGCTCTTGCTGGACTTGATCTTAAATTACTTGGATACGAACCTATCGTAACAAC
modifications: misc_feature 1..278: note = Inhibitory double stranded RNA; listed as RNA

System: G. orontii MGH1
Assay: Spray-induced gene silencing (SIGS), G. orontii spore production on A. thaliana (whole plant and detached leaf assays)
Type: in vivo, Golovinomyces orontii
Settings: A. thaliana detached leaf assay; vs buffer control

First: B1
Second: B2
The “average reduction in spore production” value of the first is lower: 30% for the first, 54% for the second.

Compared with B3, B4 is higher in “average reduction in spore production” value: 51% for the first, 67% for the second.

Same assay, conditions: A. thaliana plants, 9 days post infection; vs buffer control-sprayed plants

For B1, the “visual powdery mildew coverage and density” value was “less powdery mildew coverage and density”.

Same assay, conditions: A. thaliana whole plant assay; vs buffer control

First: B1
Second: B2
The “average reduction in spore production” value of the first is lower: 46% for the first, 50% for the second.

Going from B3 to B4, the “average reduction in spore production” value rises from 22% to 41%.
